Where a chain is given by its changes, count along the chain named.
T1: BMPRII ECD Q92H (human, UniProt Q13873-1 27-150, Q92H)
T1 sequence: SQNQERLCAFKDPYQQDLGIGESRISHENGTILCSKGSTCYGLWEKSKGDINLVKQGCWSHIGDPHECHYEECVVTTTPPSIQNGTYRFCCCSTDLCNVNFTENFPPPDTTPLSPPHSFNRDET

T2: BMPRII ECD G89W (human, UniProt Q13873-1 27-150, G89W)
T2 sequence: T1 sequence with G63W, H66Q

T3: BMPRII ECD G89A (human, UniProt Q13873-1 27-150, G89A)
T3 sequence: T1 sequence with G63A, H66Q

T4: BMPRII ECD N126S (human, UniProt Q13873-1 27-150, N126S)
T4 sequence: T1 sequence with H66Q, N100S

T5: BMPRII ECD G89E (human, UniProt Q13873-1 27-150, G89E)
T5 sequence: T1 sequence with G63E, H66Q

T6: BMPRII ECD S107P (human, UniProt Q13873-1 27-150, S107P)
T6 sequence: T1 sequence with H66Q, S81P

T7: BMPRII ECD E98K (human, UniProt Q13873-1 27-150, E98K)
T7 sequence: T1 sequence with H66Q, E72K

B1: Recombinant human BMP10 growth factor (GF)-domain (R&D Systems) (ligand)
chain: NAKGNYCKRTPLYIDFKEIGWDSWIIAPPGYEAYECRGVCNYPLAEHLTPTKHAIIQALVHLKNSQKASKACCVPTKLEPISILYLDKGVVTYKFKYEGMAVSECGCR
B2: BMPRII extracellular domain (ECD), wild type (domain or fragment)
chain: T1 sequence with H66Q
B3: BMPRII-Fc (R&D Systems) (Fc fusion)
chain: T1 sequence with H66Q

Key:
BMPRII ECD Q92H [1] = molecular target: T1, BMPRII ECD Q92H; test: SPR
BMPRII ECD G89W [2] = molecular target: T2, BMPRII ECD G89W; test: SPR
BMPRII ECD G89A [3] = molecular target: T3, BMPRII ECD G89A; test: SPR
BMPRII ECD N126S [4] = molecular target: T4, BMPRII ECD N126S; test: SPR
BMPRII ECD G89E [5] = molecular target: T5, BMPRII ECD G89E; test: SPR
BMPRII ECD S107P [6] = molecular target: T6, BMPRII ECD S107P; test: SPR
BMPRII ECD E98K [7] = molecular target: T7, BMPRII ECD E98K; test: SPR
BMPRII ECD Q92H [8] = molecular target: T1, BMPRII ECD Q92H; test: SPR; remark: listed apart in the source
BMPRII ECD G89W [9] = molecular target: T2, BMPRII ECD G89W; test: SPR; remark: listed apart in the source
BMPRII ECD G89A [10] = molecular target: T3, BMPRII ECD G89A; test: SPR; remark: listed apart in the source
BMPRII ECD N126S [11] = molecular target: T4, BMPRII ECD N126S; test: SPR; remark: listed apart in the source
BMPRII ECD G89E [12] = molecular target: T5, BMPRII ECD G89E; test: SPR; remark: listed apart in the source
BMPRII ECD S107P [13] = molecular target: T6, BMPRII ECD S107P; test: SPR; remark: listed apart in the source
BMPRII ECD E98K [14] = molecular target: T7, BMPRII ECD E98K; test: SPR; remark: listed apart in the source
BMPRII ECD ΔF3 = BMPRII ECD ΔF3 (human, UniProt Q13873-1 27-150); test: SPR
BMPRII ECD ΔF1 = BMPRII ECD ΔF1 (human, UniProt Q13873-1 27-150); test: SPR
BMPRII-Fc (R&D Systems) [15] = molecular target: B3; test: SPR; BMPRII-Fc immobilised
BMPRII-Fc (R&D Systems) [16] = molecular target: B3; test: SPR; BMPRII-Fc immobilised
BMPRII-Fc (R&D Systems) [17] = molecular target: B3; test: SPR; BMP10 pre-complexed with ALK1 ECD
BMPRII-Fc (R&D Systems) [18] = molecular target: B3; test: SPR; BMP10 pre-complexed with ALK1 ECD
[19] = molecular target: B1; test: SPR
[20] = molecular target: B1; test: SPR
[21] = molecular target: B1; test: SPR; BMP10 immobilised
[22] = molecular target: B1; test: SPR; BMP10 immobilised

Binder: B1
- Kd (BMPRII ECD Q92H [1]): 1220 nM
- Kd (BMPRII ECD G89W [2]): 237000 nM
- Kd (BMPRII ECD G89A [3]): 3190 nM
- Kd (BMPRII ECD N126S [4]): 1320 nM
- Kd (BMPRII ECD G89E [5]): 153000 nM
- Kd (BMPRII ECD S107P [6]): 328 nM
- Kd (BMPRII ECD E98K [7]): 1070 nM
- koff (BMPRII ECD Q92H [8]): 0.147 s⁻¹
- koff (BMPRII ECD G89W [9]): 0.433 s⁻¹
- koff (BMPRII ECD G89A [10]): 0.331 s⁻¹
- koff (BMPRII ECD N126S [11]): 0.14 s⁻¹
- koff (BMPRII ECD G89E [12]): 0.609 s⁻¹
- koff (BMPRII ECD S107P [13]): 0.0423 s⁻¹
- koff (BMPRII ECD E98K [14]): 0.158 s⁻¹
- Kd (BMPRII ECD ΔF3): 4170 nM
- koff (BMPRII ECD ΔF3): 0.49 s⁻¹
- Kd (BMPRII ECD ΔF1): 6630 nM
- koff (BMPRII ECD ΔF1): 0.309 s⁻¹
- Kd (BMPRII-Fc (R&D Systems) [15]): 0.338 nM
- koff (BMPRII-Fc (R&D Systems) [16]): 0.000838 s⁻¹
- Kd (BMPRII-Fc (R&D Systems) [17]): 1.6 nM
- koff (BMPRII-Fc (R&D Systems) [18]): 0.00138 s⁻¹

Binder: B2
- Kd [19]: 1190 nM
- koff [20]: 0.161 s⁻¹

Binder: B3
- koff [21]: 0.000857 s⁻¹
- Kd [22]: 4.47 nM
